Each block holds one substance with its values, some of them ahead of it.
Key:
[1] = target: AoLadC, LOV-activated diguanylate cyclase from Aquella oligotrophica (Aquella oligotrophica); assay: SEC-MALS; Superdex 200 Increase 10/300 GL in storage buffer, 500-1000 ug protein, illuminated state (blue light 465 nm for 1 min before loading and during the whole run); miniDAWN MALS detector
[2] = target: AoLadC, LOV-activated diguanylate cyclase from Aquella oligotrophica (Aquella oligotrophica); assay: SEC-MALS; Superdex 200 Increase 10/300 GL in storage buffer, 500-1000 ug protein, dark-adapted state (non-actinic light); miniDAWN MALS detector
[3] = target: DpLadC, LOV-activated diguanylate cyclase from Deinococcus peraridilitoris DSM 19664 (Deinococcus peraridilitoris DSM 19664); assay: SEC-MALS; Superdex 200 Increase 10/300 GL in storage buffer, 500-1000 ug protein, illuminated state (blue light 465 nm for 1 min before loading and during the whole run); miniDAWN MALS detector
[4] = target: DpLadC, LOV-activated diguanylate cyclase from Deinococcus peraridilitoris DSM 19664 (Deinococcus peraridilitoris DSM 19664); assay: SEC-MALS; Superdex 200 Increase 10/300 GL in storage buffer, 500-1000 ug protein, dark-adapted state (non-actinic light); miniDAWN MALS detector
[5] = target: MsLadC, LOV-activated diguanylate cyclase from Methylotenera sp. (Methylotenera sp.); assay: SAXS; steady-state dark-adapted sample, BM29 ESRF, 20°C in the capillary, MsLadC 0.8 mg/ml, NT-AoLadC 0.9 mg/ml; molecular weight from Porod volume and volume of correlation
[6] = target: MsLadC, LOV-activated diguanylate cyclase from Methylotenera sp. (Methylotenera sp.); assay: SEC-MALS; Superdex 200 Increase 10/300 GL in storage buffer, 500-1000 ug protein, illuminated state (blue light 465 nm for 1 min before loading and during the whole run); miniDAWN MALS detector
[7] = target: MsLadC, LOV-activated diguanylate cyclase from Methylotenera sp. (Methylotenera sp.); assay: SEC-MALS; Superdex 200 Increase 10/300 GL in storage buffer, 500-1000 ug protein, dark-adapted state (non-actinic light); miniDAWN MALS detector
[8] = target: MsLadC, LOV-activated diguanylate cyclase from Methylotenera sp. (Methylotenera sp.); assay: SAXS; steady-state light-adapted sample (blue light 465 nm), BM29 ESRF, 20°C in the capillary, MsLadC 0.8 mg/ml, NT-AoLadC 0.9 mg/ml; molecular weight from Porod volume and volume of correlation
[9] = target: SfLadC, LOV-activated diguanylate cyclase from Serratia fonticola AU-AP2C (Serratia fonticola AU-AP2C); assay: SEC-MALS; Superdex 200 Increase 10/300 GL in storage buffer, 500-1000 ug protein, illuminated state (blue light 465 nm for 1 min before loading and during the whole run); miniDAWN MALS detector
[10] = target: SfLadC, LOV-activated diguanylate cyclase from Serratia fonticola AU-AP2C (Serratia fonticola AU-AP2C); assay: SEC-MALS; Superdex 200 Increase 10/300 GL in storage buffer, 500-1000 ug protein, dark-adapted state (non-actinic light); miniDAWN MALS detector

stoichiometry N [1]: 2
stoichiometry N [2]: 2
Substance: AoLadC, LOV-activated diguanylate cyclase from Aquella oligotrophica (enzyme)

stoichiometry N [3]: 2
stoichiometry N [4]: 2
Substance: DpLadC, LOV-activated diguanylate cyclase from Deinococcus peraridilitoris DSM 19664 (enzyme)

stoichiometry N [5]: 2
stoichiometry N [6]: 2
stoichiometry N [7]: 2
stoichiometry N [8]: 2
Substance: MsLadC, LOV-activated diguanylate cyclase from Methylotenera sp. (enzyme)

stoichiometry N [9]: 2
stoichiometry N [10]: 2
Substance: SfLadC, LOV-activated diguanylate cyclase from Serratia fonticola AU-AP2C (enzyme)

From article PMC10396304
